# Tests used:
# [1] = target: microtubules of porcine brain tubulin (pig (endogenous in brain)) (UniProt P02550)
# [2] = target: GFP-tagged human cytoplasmic dynein complex (human) (UniProt Q14204); test: TIRF microscopy of purified proteins on static GMPCPP microtubules (single-particle colocalisation); 5 nM GFP-dynein, 10 nM pig dynactin, 200 nM BicD2-N, 50 nM mCherry-Lis1; immobilised GMPCPP microtubules; HEPES-based buffer (60 mM HEPES pH 7.4, 50 mM K-acetate, 2 mM MgCl2, 10% glycerol, 2 mM ATP)
# [3] = target: GFP-tagged human cytoplasmic dynein complex (human) (UniProt Q14204); test: TIRF microscopy of purified proteins on static GMPCPP microtubules (single-particle colocalisation); 5 nM GFP-dynein, 10 nM pig dynactin, 200 nM BicD2-N, 50 nM mCherry-Lis1; immobilised GMPCPP microtubules; assay buffer AB
"initiation probability of processive DDB runs within the first 360 nm from the growing microtubule plus end, without EB1 (average 0.05 per 360 nm segment anywhere on the microtubule) [1]",percent of processive DDB particles with Lis1 bound [2] [%],percent of processive DDB particles with Lis1 bound [3] [%],Molecule
0.33,–,–,native dynactin complex from pig brain (from UniProt A0A287B8J2 1-1281; A0A5G2QD80 1-405; F2Z5G5 1-349)
–,16,9,mCherry-Lis1 (human Lissencephaly-1) (natural protein) MVLSQRQRDELNRAIADYLRSNGYEEAYSVFKKEAELDVNEELDKKYAGLLEKKWTSVIRLQKKVMELESKLNEAKEEFTSGGPLGQKRDPKEWIPRPPEKYALSGHRSPVTRVIFHPVFSVMVSASEDATIKVWDYETGDFERTLKGHTDSVQDISFDHSGKLLASCSADMTIKLWDFQGFECIRTMHGHDHNVSSVAIMPNGDHIVSASRDKTIKMWEVQTGYCVKTFTGHREWVRMVRPNQDGTLIASCSNDQTVRVWVVATKECKAELREHEHVVECISWAPESSYSSISEATGSETKKSGKPGPFLLSGSRDKTIKMWDVSTGMCLMTLVGHDNWVRGVLFHSGGKFILSCADDKTLRVWDYKNKRCMKTLNAHEHFVTSLDFHKTAPYVVTGSVDQTVKVWECR
